Results: paper PMC8586658 (Cancer Science, 2021)

Target: T1, mouse IL‐2Rα on 293T cells (293Tα) (mouse, UniProt P01590 22-268)
T1 sequence: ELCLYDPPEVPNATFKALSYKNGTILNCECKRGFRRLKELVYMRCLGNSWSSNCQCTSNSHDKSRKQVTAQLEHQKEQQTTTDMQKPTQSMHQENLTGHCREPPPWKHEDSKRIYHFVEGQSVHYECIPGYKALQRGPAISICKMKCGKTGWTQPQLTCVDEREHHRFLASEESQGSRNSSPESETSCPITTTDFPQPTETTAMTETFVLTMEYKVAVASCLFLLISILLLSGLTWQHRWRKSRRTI
Test: binding of NanoLuc fusion proteins to cells

mouse 293Tα/293T ratio: 1.8 ratio
B1: Mutakine‐6 (MK‐6), IL‐2 K35A/R38A/K43A/Y45A on the MK‐0 template, fused to NanoLuc (ligand)
chain: APASSSTKKTQLQLEHLLLDLQMILNGINNYKNPALTAMLTFAFAMPKKATELKHLQCLEEELKPLEEVLNLAQSKNFHLRPRDLISNINVIVLELKGSETTFMCEYADETATIVEFLNRWITFAQSIISTLT
